PMC7913698, “RPA complexes in Caenorhabditis elegans meiosis; unique roles in replication, meiotic recombination and apoptosis” (Nucleic Acids Research, 2021)

What was measured:
Assay in all cases: single-molecule pull-down (SiMPull, TIRF microscopy); whole worm lysate of the triple-tagged strain; biotinylated antibody against the tag of one subunit (anti-OLLAS, anti-FLAG or anti-MYC) tethered to the neutravidin surface captures complexes; Cy3- and Cy5-labelled antibodies against the tags detect the subunits; track counts after wash, summed over fields of view; controls: Pre-Ab and untagged wild-type lysate
[1] = target: 3XFLAG::RPA-2 (C. elegans) (UniProt Q95Y97)
MYC::RPA-4 (C. elegans) = target: MYC::RPA-4 (C. elegans)
[2] = target: OLLAS::RPA-1 (C. elegans) (UniProt Q19537)
[3] = target: the molecule itself

## MYC::RPA-4 (natural protein)
[1]
  pulldown counts: 206 counts
MYC::RPA-4 (C. elegans)
  pulldown counts: 2300 counts
[2]
  pulldown counts: 1810 counts

B1: OLLAS::RPA-1 (natural protein, C. elegans, UniProt Q19537 1-655, looked up)
chain: MAAIHINHDVFNKYHTNGKLRLTTGYVQEAIENNGYPGHDGIVQVLKGKVEQGEQLGHAFTFRIRISDGVFQYNALMSADIDDQIKREVEHLVEGTIIALTKFEIYDQGEGAKNCFLIKGYKILSRYHQVLTSPEVKPRSHSGKPDEHKGYRPNIIIEDVWPEAEGMAADYQENMANPPAAKAPKREFGEEASYNRAAAPEATRARAVPPPARRTASNTERGVMPIAMVTPYVSNFKIHGMVSRKEEIRTFPAKNTKVFNFEITDSNGDTIRCTAFNEVAESLYTTITENLSYYLSGGSVKQANKKFNNTGHDYEITLRSDSIIEAGGELLAAPKLILKRVKLGEIAGYAGQLIDVLVVVEKMDPEATEFTSKAGKSLIKREMELIDESGALVRLTLWGDEATKALVDDYVQKVIAFKGVIPREFNGGFSLGTGSATRIISVPEIAGVSELYDWYANVKPTTEVKMMSQAAGGSNEAPRTIAGLQEMQFGKDSDKGDYATVKAMITRVNPTNALYRGCASEGCQKKLVGENGDYRCEKCNKNMNKFKWLYMMQFELSDETGQVYVTAFGDSAAKIVGKSAAELGELHDESPDEYNAIFERLQFVPKMWRLRCKMDSYNEEVRQKMTVYGVDDVNQDKYIENLKQMIEQMQQMSDY
notes: also called OLLAS-tagged RPA-1; CeRPA large subunit; source: endogenous locus tagged by CRISPR/Cas9, C. elegans whole worm lysate; not shown: OLLAS, N-terminal, kept
MYC::RPA-4 (C. elegans)
  pulldown counts: 100 counts
[3]
  pulldown counts: 1060 counts

B2: 3XFLAG::RPA-2 (natural protein, C. elegans, UniProt Q95Y97 1-288, looked up)
chain: MWNETVEHENAGNGWAAGESSFMTDRKPDSKATTLGERLPVPVTISNLIEHFSAQDDKYVVGTFRFATVLTVGIVKDISQDGTTYTYDLCDPNNTEMEYRTLKYDNEGSTFDHSSIVEGTRVRAIGKLKGFDGNNTIMLFNITPVEDDKDFTIFELEAEAARLFFQKNVSEKLKSVDSDGFQGMLAPPKSRMSQTSHQSSQGSDTKERLYAQPQKVMTGANQGDVLRERITAVLMAVPEGSRDEGRHVSWIAEQIQETNISIVRKCVGEMVENGLVYTTVDEETVSAI
notes: also called 3XFLAG-tagged RPA-2; source: endogenous locus tagged by CRISPR/Cas9, C. elegans whole worm lysate; not shown: 3xFLAG, N-terminal, kept
[3]
  pulldown counts: 724 counts
